The text below walks through data of article PMC2926618.

One data set has as its target T1, GST-Kaiso zinc fingers (Homo sapiens, UniProt Q86T24 454-638).
T1 sequence: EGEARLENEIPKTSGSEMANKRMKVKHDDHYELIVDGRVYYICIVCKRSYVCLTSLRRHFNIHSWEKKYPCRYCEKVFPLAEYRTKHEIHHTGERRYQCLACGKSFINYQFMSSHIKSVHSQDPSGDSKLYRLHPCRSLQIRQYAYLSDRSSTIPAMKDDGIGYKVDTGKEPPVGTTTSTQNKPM
Description: EMSA. (In general: In EMSA bound probe runs differently from free probe, usually more slowly.)

In data set [1] the target is T2, GST-ZBTB4 zinc fingers (Homo sapiens, UniProt Q9P1Z0 268-460).
T2 sequence: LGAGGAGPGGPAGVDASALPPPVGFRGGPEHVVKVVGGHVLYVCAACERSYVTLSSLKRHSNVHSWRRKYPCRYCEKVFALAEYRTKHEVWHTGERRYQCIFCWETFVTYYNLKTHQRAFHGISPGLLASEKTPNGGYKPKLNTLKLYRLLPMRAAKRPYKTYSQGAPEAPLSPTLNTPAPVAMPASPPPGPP
Description: EMSA.

A further data set deals with T3, GST-ZBTB38 zinc fingers (Homo sapiens, UniProt Q8NAP3 418-612).
T3 sequence: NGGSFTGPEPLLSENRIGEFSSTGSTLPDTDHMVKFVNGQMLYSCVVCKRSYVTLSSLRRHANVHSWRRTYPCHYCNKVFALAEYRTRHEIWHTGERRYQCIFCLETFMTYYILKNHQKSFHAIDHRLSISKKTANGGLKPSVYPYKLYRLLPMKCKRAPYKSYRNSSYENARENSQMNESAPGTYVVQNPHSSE
As to the kind of experiment: EMSA.

Data set [2] has as its target T2, GST-ZBTB4 zinc fingers. As to the kind of experiment: competition.
The target in the next data set is T4, GST-ZBTB4 K354A (Homo sapiens, UniProt Q9P1Z0 268-460, K354A).
T4 sequence: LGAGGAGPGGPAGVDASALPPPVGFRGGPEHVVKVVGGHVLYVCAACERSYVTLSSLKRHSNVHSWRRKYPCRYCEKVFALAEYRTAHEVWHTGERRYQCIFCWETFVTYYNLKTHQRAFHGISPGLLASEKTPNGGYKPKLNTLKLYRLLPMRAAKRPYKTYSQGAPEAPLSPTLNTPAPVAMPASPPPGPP
Description: EMSA.

A further data set has as its target T5, GST-ZBTB4 Y351A (Homo sapiens, UniProt Q9P1Z0 268-460, Y351A).
T5 sequence: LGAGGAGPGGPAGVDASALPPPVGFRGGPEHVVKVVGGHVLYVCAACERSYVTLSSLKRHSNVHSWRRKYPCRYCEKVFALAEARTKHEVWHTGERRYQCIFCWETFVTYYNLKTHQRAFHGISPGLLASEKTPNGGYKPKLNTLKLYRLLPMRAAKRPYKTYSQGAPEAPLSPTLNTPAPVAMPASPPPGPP
Description: EMSA.

Another data set addresses T6, GST-ZBTB4 T376A (Homo sapiens, UniProt Q9P1Z0 268-460, T376A).
T6 sequence: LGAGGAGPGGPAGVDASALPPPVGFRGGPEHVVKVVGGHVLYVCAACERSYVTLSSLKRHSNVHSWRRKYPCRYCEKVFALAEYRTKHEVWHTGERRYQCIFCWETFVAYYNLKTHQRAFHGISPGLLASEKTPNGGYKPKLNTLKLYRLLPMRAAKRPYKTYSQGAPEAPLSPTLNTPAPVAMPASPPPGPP
As to the kind of experiment: EMSA.

The next data set has as its target T7, GST-ZBTB4 L348A (Homo sapiens, UniProt Q9P1Z0 268-460, L348A).
T7 sequence: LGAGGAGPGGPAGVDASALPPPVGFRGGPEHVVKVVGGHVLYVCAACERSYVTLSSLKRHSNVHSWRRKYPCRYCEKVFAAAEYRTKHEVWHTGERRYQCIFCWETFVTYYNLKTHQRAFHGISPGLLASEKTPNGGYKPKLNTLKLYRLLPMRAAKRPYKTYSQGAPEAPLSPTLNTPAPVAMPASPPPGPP
As to the kind of experiment: EMSA.

The target of a further data set is T8, GST-Kaiso E535A (Homo sapiens, UniProt Q86T24 454-638, E535A).
T8 sequence: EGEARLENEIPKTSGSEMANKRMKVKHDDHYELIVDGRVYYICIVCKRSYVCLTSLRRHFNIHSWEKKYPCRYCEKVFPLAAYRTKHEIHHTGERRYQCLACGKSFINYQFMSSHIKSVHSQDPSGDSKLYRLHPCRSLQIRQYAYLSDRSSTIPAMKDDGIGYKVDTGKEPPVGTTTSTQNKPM
As to the kind of experiment: EMSA.

For a further data set, the target named is T9, GST-ZBTB4 R326A (Homo sapiens, UniProt Q9P1Z0 268-460, R326A).
T9 sequence: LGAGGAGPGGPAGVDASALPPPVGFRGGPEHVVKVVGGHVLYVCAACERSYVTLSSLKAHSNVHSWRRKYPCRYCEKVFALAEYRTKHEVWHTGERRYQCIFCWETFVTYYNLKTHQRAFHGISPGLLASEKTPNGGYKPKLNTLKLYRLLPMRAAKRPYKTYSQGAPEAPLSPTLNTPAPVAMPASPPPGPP
As to the kind of experiment: EMSA.

Another data set has as its target T10, GST-ZBTB4 S323A (Homo sapiens, UniProt Q9P1Z0 268-460, S323A).
T10 sequence: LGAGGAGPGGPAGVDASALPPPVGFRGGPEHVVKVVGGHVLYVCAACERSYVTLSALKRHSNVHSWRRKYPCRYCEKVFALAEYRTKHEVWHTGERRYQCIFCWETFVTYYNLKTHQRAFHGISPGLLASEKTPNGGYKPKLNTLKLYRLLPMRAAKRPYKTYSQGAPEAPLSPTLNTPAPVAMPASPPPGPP
As to the kind of experiment: EMSA.

The target in a further data set is T11, GST-ZBTB4 E350A (Homo sapiens, UniProt Q9P1Z0 268-460, E350A).
T11 sequence: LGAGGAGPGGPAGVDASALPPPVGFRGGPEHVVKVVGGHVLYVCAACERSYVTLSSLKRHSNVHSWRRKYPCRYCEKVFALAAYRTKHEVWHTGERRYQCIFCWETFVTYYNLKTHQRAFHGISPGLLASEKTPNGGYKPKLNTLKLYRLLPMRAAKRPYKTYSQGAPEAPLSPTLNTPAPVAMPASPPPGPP
As to the kind of experiment: EMSA.

Data set [3] has as its target T2, GST-ZBTB4 zinc fingers. As to the kind of experiment: EMSA. This is another data set of the same source.
Data set [4] has as its target T2, GST-ZBTB4 zinc fingers. As to the kind of experiment: competition. This is another data set of the same source.

B1: S15 (CCGCCATC) (dsDNA)
DNA 1: ACCCAACCGCCATCTGGGT
DNA 2: ACCCAGATGGCGGTTGGGT
Regarding B1, the binding result is on record as “binds” in the data set with GST-Kaiso zinc fingers, “binds” with GST-ZBTB4 zinc fingers [1] and “no binding” with GST-ZBTB38 zinc fingers.

B2: meZ4BS (CMGCCAT) (dsDNA)
DNA 1: GTAGAAGTTCCCGCCATCACTATTG
DNA 2: CAATAGTGATGGCGGGAACTTCTAC
modifications: 5mC at strand 1 C12 and strand 2 C13
As for B2, the binding result with GST-ZBTB4 zinc fingers [2] was “binds”; with GST-ZBTB4 K354A, “binds”; in the data set with GST-ZBTB4 Y351A it was “binds”; in the data set with GST-ZBTB4 T376A it was “binds”; with GST-ZBTB4 L348A it was “binds”; in the data set with GST-Kaiso E535A, “no binding”. Also, the values for the binding result with GST-ZBTB4 R326A, in the data set with GST-ZBTB4 S323A and with GST-ZBTB38 zinc fingers were “no binding”, “binds” and “binds”, respectively.

B3: Non-selected (dsDNA)
DNA 1: ACCAAGCAACACACCCCGT
DNA 2: ACGGGGTGTGTTGCTTGGT
Consider B3, for which, in the data set with GST-ZBTB4 zinc fingers [1], the binding result is listed as “no binding”.

B4: MS20 unmethylated (ACGCTTG) (dsDNA)
DNA 1: AAGGCCAACGCTTGTGGT
DNA 2: ACCACAAGCGTTGGCCTT
On to B4, for which the binding result with GST-ZBTB4 zinc fingers [1] is recorded as “no binding”.

B5: MS20 methylated (ACGCTTG) (dsDNA)
DNA 1: AAGGCCAACGCTTGTGGT
DNA 2: ACCACAAGCGTTGGCCTT
modifications: 5mC at CpG, both strands (SssI)
Consider B5, for which the binding result with GST-ZBTB4 zinc fingers [1] is “binds”.

B6: MS8 methylated (CCGCTAT) (dsDNA)
DNA 1: ACCCAAACCGCTATCCTT
DNA 2: AAGGATAGCGGTTTGGGT
modifications: 5mC at CpG, both strands (SssI)
As to B6, the binding result with GST-ZBTB4 zinc fingers [1] is reported as “binds”.

B7: TG/GC mismatch (dsDNA)
DNA 1: GTAGAAGTTCCTGCCATCACTATTG
DNA 2: CAATAGTGATGGCGGGAACTTCTAC
Consider B7, for which, in the data set with GST-ZBTB4 E350A, the binding result is recorded as “binds”.

B8: Z4BS (ZBS, CTGCCATC; = TG/AC) (dsDNA)
DNA 1: GTAGAAGTTCCTGCCATCACTATTG
DNA 2: CAATAGTGATGGCAGGAACTTCTAC
Turning to B8, the binding result with GST-ZBTB4 zinc fingers [3] was “binds”; in the data set with GST-ZBTB4 K354A, “binds”; with GST-ZBTB4 T376A it was “binds”; with GST-Kaiso E535A, “binds”; with GST-ZBTB4 R326A, “no binding”; with GST-ZBTB4 E350A it was “binds”.

B9: meZ4BS hemimethylated, upper strand (dsDNA)
DNA 1: GTAGAAGTTCCCGCCATCACTATTG
DNA 2: CAATAGTGATGGCGGGAACTTCTAC
modifications: 5mC at strand 1 C12 only
For B9, the binding result with GST-ZBTB4 zinc fingers [4] is “binds”.

B10: S2 (CTGCCATC) (dsDNA)
DNA 1: ACCCACCTGCCATCTAGGT
DNA 2: ACCTAGATGGCAGGTGGGT
As to B10, the binding result was “binds” with GST-Kaiso zinc fingers, “binds” with GST-ZBTB4 zinc fingers [1] and “no binding” with GST-ZBTB38 zinc fingers.
